Data taken from patent publication US20260242735A1 (UNIVERSIT T BASEL, published 2026).
Values belong to the binder of their own block, whether it stands above or below them.

How the values were obtained:
human wild-type CD33 [1] = target: T1, human wild-type CD33 (human, UniProt P20138 18-364); assay: flow cytometry, Fab at 1.00 ug/ml on HEK293-T cells expressing CD33 against vector alone
T1 construct: also called SIGLEC3; P67
Experimental: (§1) Serial dilutions of each Fab were tested for immunoreactivity against cells expressing wild-type CD33 or vector alone. The optimal screening concentration for the Fabs was determined based on the raw signal values and signal-to-background calculations. Each point represents the mean of four replicates.

human CD33 D18A = human CD33 D18A (human, UniProt P20138 19-364); assay: flow cytometry, alanine scan
Experimental: (§2) An alanine scan on human CD33 was performed to the determine the residues on CD33 that are involved in binding to the antibodies investigated. […] Briefly, a mutation library of CD33 was created by high-throughput, site-directed mutagenesis. Each residue was individually mutated to alanine, with alanine codons mutated to serine. The mutant library was arrayed in 384-well microplates and transiently transfected into HEK293-T. Following transfection, cells were incubated with the indicated antibodies (IgG or Fab) at concentrations pre-determined using an independent immunofluorescence titration curve on wild type CD33. […] Binding of each antibody to each mutant clone was determined in duplicates. For each point, background fluorescence was subtracted from the raw data, which were then normalized to antibody reactivity with wild type CD33.
(§3) Critical residues for antibody binding (outlined in dark grey) were residues whose mutations led to a binding of the test Abs of less than 20%. Additional secondary residues (outlined in light grey) were identified that led to a binding of the test Abs of between 20 and 40% as compared to the wild type CD33.

human CD33 H45A = human CD33 H45A (human, UniProt P20138 18-364); assay: flow cytometry, alanine scan
Experimental: as §2, §3

human CD33 P40A = human CD33 P40A (human, UniProt P20138 18-364); assay: flow cytometry, alanine scan
Experimental: as §2, §3

human CD33 C41A = human CD33 C41A (human, UniProt P20138 18-364); assay: flow cytometry, alanine scan
Experimental: as §2, §3

human CD33 F43A = human CD33 F43A (human, UniProt P20138 18-364); assay: flow cytometry, alanine scan
Experimental: as §2, §3

human CD33 W22A = human CD33 W22A (human, UniProt P20138 18-364); assay: flow cytometry, alanine scan
Experimental: as §2, §3

human CD33 V39A = human CD33 V39A (human, UniProt P20138 18-364); assay: flow cytometry, alanine scan
Experimental: as §2, §3

human CD33 N20A = human CD33 N20A (human, UniProt P20138 18-364); assay: flow cytometry, alanine scan
Experimental: as §2, §3

human CD33 T42A = human CD33 T42A (human, UniProt P20138 18-364); assay: flow cytometry, alanine scan
Experimental: as §2, §3

human CD33 Q32A = human CD33 Q32A (human, UniProt P20138 18-364); assay: flow cytometry, alanine scan
Experimental: as §2, §3

human CD33 G34A = human CD33 G34A (human, UniProt P20138 18-364); assay: flow cytometry, alanine scan
Experimental: as §2, §3

human CD33 E33A = human CD33 E33A (human, UniProt P20138 18-364); assay: flow cytometry, alanine scan
Experimental: as §2, §3

human CD33 P19A = human CD33 P19A (human, UniProt P20138 18-364); assay: flow cytometry, alanine scan
Experimental: as §2, §3

human CD33 L23A = human CD33 L23A (human, UniProt P20138 18-364); assay: flow cytometry, alanine scan
Experimental: as §2, §3

human CD33 C36A = human CD33 C36A (human, UniProt P20138 18-364); assay: flow cytometry, alanine scan
Experimental: as §2, §3

human CD33 S28A = human CD33 S28A (human, UniProt P20138 18-364); assay: flow cytometry, alanine scan
Experimental: as §2, §3

human CD33 V31A = human CD33 V31A (human, UniProt P20138 18-364); assay: flow cytometry, alanine scan
Experimental: as §2, §3

human CD33 V37A = human CD33 V37A (human, UniProt P20138 18-364); assay: flow cytometry, alanine scan
Experimental: as §2, §3

human CD33 E27A = human CD33 E27A (human, UniProt P20138 18-364); assay: flow cytometry, alanine scan
Experimental: as §2, §3

human CD33 L38A = human CD33 L38A (human, UniProt P20138 18-364); assay: flow cytometry, alanine scan
Experimental: as §2, §3

human CD33 T30A = human CD33 T30A (human, UniProt P20138 18-364); assay: flow cytometry, alanine scan
Experimental: as §2, §3

human CD33 L35A = human CD33 L35A (human, UniProt P20138 18-364); assay: flow cytometry, alanine scan
Experimental: as §2, §3

human CD33 V29A = human CD33 V29A (human, UniProt P20138 18-364); assay: flow cytometry, alanine scan
Experimental: as §2, §3

human CD33 F21A = human CD33 F21A (human, UniProt P20138 18-364); assay: flow cytometry, alanine scan
Experimental: as §2, §3

human CD33 T356A = target: T2, human CD33 T356A (human, UniProt P20138 18-364); assay: alanine scan; flow cytometry, HEK293-T cells expressing the mutant; normalised to WT CD33;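 further: antibodies (IgG or Fab) at doses pre-set by titration on wild-type CD33, duplicate readings with background fluorescence subtracted, mutants made by site-directed alanine substitution (alanine changed to serine)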
T2 construct: Alanine-scan mutant clone of CD33 transiently transfected into HEK293-T cells
Experimental: as §2, §3

human CD33 E357A = target: T3, human CD33 E357A (human, UniProt P20138 18-364); assay: as above
T3 construct: Alanine-scan mutant clone of CD33 transiently transfected into HEK293-T cells
Experimental: as §2, §3

human CD33 D353A = target: T4, human CD33 D353A (human, UniProt P20138 18-364); assay: as above
T4 construct: Alanine-scan mutant clone of CD33 transiently transfected into HEK293-T cells
Experimental: as §2, §3

human CD33 E360A = target: T5, human CD33 E360A (human, UniProt P20138 18-364); assay: as above
T5 construct: Alanine-scan mutant clone of CD33 transiently transfected into HEK293-T cells
Experimental: as §2, §3

human CD33 T354A = target: T6, human CD33 T354A (human, UniProt P20138 18-364); assay: as above
T6 construct: Alanine-scan mutant clone of CD33 transiently transfected into HEK293-T cells
Experimental: as §2, §3

human CD33 K352A = target: T7, human CD33 K352A (human, UniProt P20138 18-364); assay: as above
T7 construct: Alanine-scan mutant clone of CD33 transiently transfected into HEK293-T cells
Experimental: as §2, §3

human CD33 S355A = target: T8, human CD33 S355A (human, UniProt P20138 18-364); assay: as above
T8 construct: Alanine-scan mutant clone of CD33 transiently transfected into HEK293-T cells
Experimental: as §2, §3

human CD33 H346A = target: T9, human CD33 H346A (human, UniProt P20138 18-364); assay: as above
T9 construct: Alanine-scan mutant clone of CD33 transiently transfected into HEK293-T cells
Experimental: as §2, §3

human CD33 R362A = target: T10, human CD33 R362A (human, UniProt P20138 18-364); assay: as above
T10 construct: Alanine-scan mutant clone of CD33 transiently transfected into HEK293-T cells
Experimental: as §2, §3

human CD33 T363A = target: T11, human CD33 T363A (human, UniProt P20138 18-364); assay: as above
T11 construct: Alanine-scan mutant clone of CD33 transiently transfected into HEK293-T cells
Experimental: as §2, §3

human CD33 N349A = target: T12, human CD33 N349A (human, UniProt P20138 18-364); assay: as above
T12 construct: Alanine-scan mutant clone of CD33 transiently transfected into HEK293-T cells
Experimental: as §2, §3

human CD33 M348A = target: T13, human CD33 M348A (human, UniProt P20138 18-364); assay: as above
T13 construct: Alanine-scan mutant clone of CD33 transiently transfected into HEK293-T cells
Experimental: as §2, §3

human CD33 S359A = target: T14, human CD33 S359A (human, UniProt P20138 18-364); assay: as above
T14 construct: Alanine-scan mutant clone of CD33 transiently transfected into HEK293-T cells
Experimental: as §2, §3

human CD33 S351A = target: T15, human CD33 S351A (human, UniProt P20138 18-364); assay: as above
T15 construct: Alanine-scan mutant clone of CD33 transiently transfected into HEK293-T cells
Experimental: as §2, §3

human CD33 V361A = target: T16, human CD33 V361A (human, UniProt P20138 18-364); assay: as above
T16 construct: Alanine-scan mutant clone of CD33 transiently transfected into HEK293-T cells
Experimental: as §2, §3

human CD33 G347A = target: T17, human CD33 G347A (human, UniProt P20138 18-364); assay: as above
T17 construct: Alanine-scan mutant clone of CD33 transiently transfected into HEK293-T cells
Experimental: as §2, §3

human CD33 Q364A = target: T18, human CD33 Q364A (human, UniProt P20138 18-363); assay: as above
T18 construct: Alanine-scan mutant clone of CD33 transiently transfected into HEK293-T cells
Experimental: as §2, §3

human CD33 Y358A = target: T19, human CD33 Y358A (human, UniProt P20138 18-364); assay: as above
T19 construct: Alanine-scan mutant clone of CD33 transiently transfected into HEK293-T cells
Experimental: as §2, §3

human CD33 P350A = target: T20, human CD33 P350A (human, UniProt P20138 18-364); assay: as above
T20 construct: Alanine-scan mutant clone of CD33 transiently transfected into HEK293-T cells
Experimental: as §2, §3

human wild-type CD33 [2] = target: T1, human wild-type CD33; assay: flow cytometry, Fab at 0.50 ug/ml on HEK293-T cells expressing CD33 against vector alone
Experimental: as §1

T1 sequence (P20138 18-364 limits assumed): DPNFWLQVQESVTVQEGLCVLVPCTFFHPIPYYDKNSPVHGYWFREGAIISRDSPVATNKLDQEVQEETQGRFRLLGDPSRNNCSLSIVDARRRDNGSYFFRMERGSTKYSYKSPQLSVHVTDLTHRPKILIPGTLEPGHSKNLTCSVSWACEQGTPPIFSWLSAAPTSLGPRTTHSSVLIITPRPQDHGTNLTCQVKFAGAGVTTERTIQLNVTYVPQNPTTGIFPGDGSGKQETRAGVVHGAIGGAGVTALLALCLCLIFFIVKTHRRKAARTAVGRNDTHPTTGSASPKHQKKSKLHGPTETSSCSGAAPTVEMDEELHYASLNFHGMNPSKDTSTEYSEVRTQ
Chain of human CD33 F21A (P20138 18-364 F21A limits assumed): as the sequence (P20138 18-364 limits assumed) above, with F4A counted along it
T8 sequence (P20138 18-364 S355A limits assumed): as the sequence (P20138 18-364 limits assumed) above, with S338A counted along it
T13 sequence (P20138 18-364 M348A limits assumed): as the sequence (P20138 18-364 limits assumed) above, with M331A counted along it
Chain of human CD33 E27A (P20138 18-364 E27A limits assumed): as the sequence (P20138 18-364 limits assumed) above, with E10A counted along it
Chain of human CD33 V29A (P20138 18-364 V29A limits assumed): as the sequence (P20138 18-364 limits assumed) above, with V12A counted along it
Chain of human CD33 P19A (P20138 18-364 P19A limits assumed): as the sequence (P20138 18-364 limits assumed) above, with P2A counted along it
Chain of human CD33 H45A (P20138 18-364 H45A limits assumed): as the sequence (P20138 18-364 limits assumed) above, with H28A counted along it
Chain of human CD33 V37A (P20138 18-364 V37A limits assumed): as the sequence (P20138 18-364 limits assumed) above, with V20A counted along it
Chain of human CD33 N20A (P20138 18-364 N20A limits assumed): as the sequence (P20138 18-364 limits assumed) above, with N3A counted along it
T17 sequence (P20138 18-364 G347A limits assumed): as the sequence (P20138 18-364 limits assumed) above, with G330A counted along it
Chain of human CD33 F43A (P20138 18-364 F43A limits assumed): as the sequence (P20138 18-364 limits assumed) above, with F26A counted along it
T20 sequence (P20138 18-364 P350A limits assumed): as the sequence (P20138 18-364 limits assumed) above, with P333A counted along it
T5 sequence (P20138 18-364 E360A limits assumed): as the sequence (P20138 18-364 limits assumed) above, with E343A counted along it

B2: Refmab #6 (antibody, V domains shown)
VH: QVQLQQPGAEVVKPGASVKMSCKASGYTFTSYYIHWIKQTPGQGLEWVGVIYPGNDDISYNQKFQGKATLTADKSSTTAYMQLSSLTSEDSAVYYCAREVRLRYFDVWGQGTTVTVSS
VL: EIVLTQSPGSLAVSPGERVTMSCKSSQSVFFSSSQKNYLAWYQQIPGQSPRLLIYWASTRESGVPDRFTGSGSGTDFTLTISSVQPEDLAIYYCHQYLSSRTFGQGTKLEIK
notes: The alanine scan used IgG or Fab
- Mean % WT Binding (human CD33 D18A): 39.5 % of WT
- Mean % WT Binding (human CD33 H45A): 87.8 % of WT
- Mean % WT Binding (human CD33 P40A): 55.5 % of WT
- Mean % WT Binding (human CD33 C41A): 4.5 % of WT
- Mean % WT Binding (human CD33 F43A): 34.6 % of WT
- Mean % WT Binding (human CD33 W22A): 3.8 % of WT
- Mean % WT Binding (human CD33 V39A): 79.2 % of WT
- Mean % WT Binding (human CD33 N20A): 92.9 % of WT
- Mean % WT Binding (human CD33 T42A): 36.6 % of WT
- Mean % WT Binding (human CD33 Q32A): 91.3 % of WT
- Mean % WT Binding (human CD33 G34A): 100 % of WT
- Mean % WT Binding (human CD33 E33A): 90 % of WT
- Mean % WT Binding (human CD33 P19A): 87.4 % of WT
- Mean % WT Binding (human CD33 L23A): 41.4 % of WT
- Mean % WT Binding (human CD33 C36A): 110 % of WT
- Mean % WT Binding (human CD33 S28A): 89.4 % of WT
- Mean % WT Binding (human CD33 V31A): 105 % of WT
- Mean % WT Binding (human CD33 V37A): 111 % of WT
- Mean % WT Binding (human CD33 E27A): 92.6 % of WT
- Mean % WT Binding (human CD33 L38A): 105 % of WT
- Mean % WT Binding (human CD33 T30A): 104 % of WT
- Mean % WT Binding (human CD33 L35A): 97.2 % of WT
- Mean % WT Binding (human CD33 V29A): 112 % of WT
- Mean % WT Binding (human CD33 F21A): 88.1 % of WT

B3: Refmab #6 (antibody, V domains shown)
VH: B2 VH
VL: B2 VL
notes: Full-length format is human IgG1 Fc silent (PG-LALA); The alanine scan used IgG or Fab
- Mean % WT Binding (human CD33 T356A): 99.5 % WT binding
- Mean % WT Binding (human CD33 E357A): 91.2 % WT binding
- Mean % WT Binding (human CD33 D353A): 92.1 % WT binding
- Mean % WT Binding (human CD33 E360A): 93.5 % WT binding
- Mean % WT Binding (human CD33 T354A): 99.3 % WT binding
- Mean % WT Binding (human CD33 K352A): 94.1 % WT binding
- Mean % WT Binding (human CD33 S355A): 98.9 % WT binding
- Mean % WT Binding (human CD33 H346A): 104 % WT binding
- Mean % WT Binding (human CD33 R362A): 107 % WT binding
- Mean % WT Binding (human CD33 T363A): 105 % WT binding
- Mean % WT Binding (human CD33 N349A): 91 % WT binding
- Mean % WT Binding (human CD33 M348A): 101 % WT binding
- Mean % WT Binding (human CD33 S359A): 82.5 % WT binding
- Mean % WT Binding (human CD33 S351A): 112 % WT binding
- Mean % WT Binding (human CD33 V361A): 76 % WT binding
- Mean % WT Binding (human CD33 G347A): 95.2 % WT binding
- Mean % WT Binding (human CD33 Q364A): 94.4 % WT binding
- Mean % WT Binding (human CD33 Y358A): 92 % WT binding
- Mean % WT Binding (human CD33 P350A): 108 % WT binding

Second part, the binder after the results:

- Signal:Background (human wild-type CD33 [1]): 12 signal:background ratio
B1: Refmab #3 Fab fragment (Fab, V domains shown)
VH: QVQLVQSGAEVKKPGSSVKVSCKASGYTFTDYNMHWVRQAPGQGLEWIGYIYPYNGGTGYNQKFKSKATITADESTNTAYMELSSLRSEDTAVYYCARGRPAMDYWGQGTLVTVSS
VL: DIQMTQSPSSLSASVGDRVTITCRASESVDNYGISFMNWFQQKPGKAPKLLIYAASNQGSGVPSRFSGSGSGTDFTLTISSLQPDDFATYYCQQSKEVPWTFGQGTKVEIK

- Signal:Background (human wild-type CD33 [2]): 33 signal:background ratio
B4: Refmab #4 Fab fragment (Fab, V domains shown)
VH: QVQLVQSGAEVKKPGESVKVSCKASGYTFTNYGMNWVKQAPGQGLEWMGWINTYTGEPTYADKFQGRVTMTTDTSTSTAYMEIRNLGGDDTAVYYCARWSWSDGYYVYFDYWGQGTSVTVSS
VL: DIVMTQSPDSLTVSLGERTTINCKSSQSVLDSSTNKNSLAWYQQKPGQPPKLLLSWASTRESGIPDRFSGSGSGTDFTLTIDSPQPEDSATYYCQQSAHFPITFGQGTRLEIK
